{"source": "paper PMC9439264", "about": "(Nature Communications, 2022)", "key": {"[1]": {"target": "HA ectodomain of A/New Caledonia/20/1999 (H1N1), recombinant (Influenza A virus A/New …, UniProt Q6WG00, strain)", "experiment": "ELISA", "conditions": "both partners purified"}, "[2]": {"target": "HA ectodomain of A/Beijing/262/1995 (H1N1), recombinant, with C-terminal thrombin site, foldon and 6-His-tag (Influenza A virus A/Beijing/262/1995 …, strain)", "experiment": "SPR", "conditions": "both partners purified"}, "[3]": {"target": "HA ectodomain of A/Beijing/262/1995 (H1N1), recombinant (Influenza A virus A/Beijing/262/1995 …, strain)", "experiment": "SPR", "conditions": "both partners purified"}, "[4]": {"target": "HA of A/New Caledonia/20/1999 (H1N1) virus, in infected MDCK cells (Influenza A virus A/New …, UniProt Q6WG00, strain)", "experiment": "immunostaining of cells or tissue", "conditions": "one partner purified"}, "[5]": {"target": "HA ectodomain of A/Beijing/262/1995 (H1N1) (Influenza A virus A/Beijing/262/1995 …, strain)", "experiment": "SPR", "conditions": "both partners purified"}, "[6]": {"target": "HA of B/Florida/4/2006 (Yamagata) (Influenza B virus B/Florida/4/2006 …, UniProt E1TVD5, strain)", "experiment": "ELISA", "conditions": "both partners purified"}, "[7]": {"target": "T1, HA trimer of A/Beijing/262/1995 (H1N1), thrombin- and trypsin-treated, for the immune complex (Influenza A virus A/Beijing/262/1995 …)", "T1 construct": "copies: 3 + 3", "experiment": "cryo-EM structure; 12H5 Fab with thrombin- and trypsin-treated BJ/1995 HA trimer", "conditions": "both partners purified"}}, "note": "Values joined by “and” are separate entries in the source; they are usually repeats but may differ in a detail not shown here. Equal values may be shown once.", "data": [{"binder": "CH65, chimeric version (antibody, V domains shown) VH: EVQLVQSGAEVKKPGASVKVSCKASGYTFTDYHINWVRQAPGQGLEWMGWIHPNSGDTNYAQKFQGWVTMTRDTAISTAYMEVNGLKSDDTAVYYCARGGLEPRSVDYYYYGMDVWGQGTTVTVSS VL: SVLTQPPSVSVAPGQTARITCGGNDIGRKSVHWNQQKPGQAPVLVVCYDSDRPSGIPERFSGSNSGNTATLTISRVEAGDEADYYCQVWDSSSDHVIFGGGTKLTVL", "values": [{"measurement": "binding result", "setting": "[1]", "value": "binds"}]}, {"binder": "C12H5, human-mouse chimeric version of mAb 12H5 (variable region of mouse 12H5, human IgG1 constant region) (antibody, V domains shown, also called MAb C12H5; C12H5 IgG; copies: 2 + 2) VH: QIQLVQSGPELKKPGETVRISCKASGYTFTKNGMNWVQQAPGKGLKWVGWINTYTGEPSYADDFKGRFAFSLETSASTAYLQINNLKNEDMAAYFCARMVRDAMDFWGQGTSVTVSS VL: DIVLTQSPASLAVSLGQRATISCKASQSVDFDGYNYLNWYQQKPGQPPKLLIYAASNLESGIPARFSGSGSGTDFTLNIHPVEEEDAATYFCQQSNEDPYTFGGGTKLEIK", "values": [{"measurement": "koff", "setting": "[2]", "value": 0.00089, "unit": "s⁻¹"}, {"measurement": "kon", "setting": "[2]", "value": 109000, "unit": "M⁻¹ s⁻¹"}]}, {"binder": "C12H5 (human-mouse chimeric version of mAb 12H5) (antibody, V domains shown, also called chimeric 12H5 monoclonal antibody; MAb C12H5) VH: QIQLVQSGPELKKPGETVRISCKASGYTFTKNGMNWVQQAPGKGLKWVGWINTYTGEPSYADDFKGRFAFSLETSASTAYLQINNLKNEDMAAYFCARMVRDAMDFWGQGTSVTVSS VL: DIVLTQSPASLAVSLGQRATISCKASQSVDFDGYNYLNWYQQKPGQPPKLLIYAASNLESGIPARFSGSGSGTDFTLNIHPVEEEDAATYFCQQSNEDPYTFGGGTKLEIK", "values": [{"measurement": "Kd", "setting": "[3]", "value": 8.1, "unit": "nM"}, {"measurement": "binding result", "setting": "[1]", "value": "binds"}, {"measurement": "binding result", "setting": "[4]", "value": "binds"}]}, {"binder": "C12H5 (chimeric 12H5 monoclonal antibody: variable region of mouse 12H5, human IgG1 constant region) (antibody, V domains shown, also called MAb C12H5; source: CHO cells, transient transfection, purified from culture media (MAbselect Sure)) VH: QIQLVQSGPELKKPGETVRISCKASGYTFTKNGMNWVQQAPGKGLKWVGWINTYTGEPSYADDFKGRFAFSLETSASTAYLQINNLKNEDMAAYFCARMVRDAMDFWGQGTSVTVSS VL: DIVLTQSPASLAVSLGQRATISCKASQSVDFDGYNYLNWYQQKPGQPPKLLIYAASNLESGIPARFSGSGSGTDFTLNIHPVEEEDAATYFCQQSNEDPYTFGGGTKLEIK", "values": [{"measurement": "Kd", "setting": "[5]", "value": 8.85, "unit": "nM"}, {"measurement": "koff", "setting": "[5]", "value": "0.0007 s⁻¹ and 0.00089 s⁻¹ and 0.00108 s⁻¹"}, {"measurement": "kon", "setting": "[5]", "value": "109000 M⁻¹ s⁻¹ and 122000 M⁻¹ s⁻¹ and 95300 M⁻¹ s⁻¹"}, {"measurement": "binding result", "setting": "[6]", "value": "no binding"}]}, {"binder": "12H5 Fab (mouse antibody) (Fab, V domains shown, source: papain digestion of mAb 12H5 (mouse ascites, protein A), purified with DEAE-5PW) VH: QIQLVQSGPELKKPGETVRISCKASGYTFTKNGMNWVQQAPGKGLKWVGWINTYTGEPSYADDFKGRFAFSLETSASTAYLQINNLKNEDMAAYFCARMVRDAMDFWGQGTSVTVSS VL: DIVLTQSPASLAVSLGQRATISCKASQSVDFDGYNYLNWYQQKPGQPPKLLIYAASNLESGIPARFSGSGSGTDFTLNIHPVEEEDAATYFCQQSNEDPYTFGGGTKLEIK", "values": [{"measurement": "stoichiometry N", "setting": "[7]", "value": 3, "unit": "Fab per HA trimer"}]}]}
